Tests used:
[1] = system: MMP-P4
[2] = system: MMP-P67
[3] = system: MMP-P24
[4] = system: MMP-P0
[5] = system: MMP-P12

Measured: fluorescence activation (recovery of Cy5.5 fluorescence on cleavage)

activated recombinant human MMP-13
>25-fold vs. without MMP: all assays above
